B1: Cp12β-HSDH (Clostridium paraputrificum) (protein)
chain: MKELNEKVAIITGAGQGIGKGIALHLGKRGVKVVCVGRRLDPIVQTVKEVEEAGGQGFAITCDVGNREDVKKVVKATVEKYGTVDVVVNNAQSLPGSAKVEDTTYEQMLTAWQSGTIGSLNMMQECFPYMKDQNEGRIINFASATGMFGYAGQLAYGCNKESIRGLTKIAAKEWAQYNIIVNCVLPGAESPAAKVWAEKFPEKYKEIMEAQPMKRFGDGEDDIGRVIAFLAGPDSKYYTGQCLLVDGGYSIAP
notes: full length, N-terminal His6 tag (pET-28a(+)), E. coli BL21-CodonPlus(DE3) RIPL, TALON purified

Experiments:
[1] = molecular target: Clostridium paraputrificum ATCC 25780 bile acid 12β-HSDH (WP_027099077.1) (Clostridium paraputrificum ATCC 25780); assay: SEC; Superose 6 10/300 GL analytical column, 4°C, 50 mM Tris-Cl, 150 mM NaCl, pH 7.5; purified protein loaded at 10 mg/mL, 0.3 ml/min; native mass estimated against Bio-Rad gel filtration standards
purified protein [2] = substrate: NC(=O)C1=CN([C@@H]2O[C@H](COP(=O)(O)OP(=O)(O)OC[C@H]3O[C@@H](n4cnc5c(N)ncnc54)[C@H](OP(=O)(O)O)[C@@H]3O)[C@@H](O)[C@H]2O)C=CC1; assay: purified protein; settings: reductive direction, 80 µM 12-oxoLCA, 10 nM enzyme, sodium phosphate pH 7.0, varied: cofactor
purified protein [3] = substrate: C[C@H](CCC(=O)O)[C@H]1CC[C@H]2[C@@H]3CC[C@@H]4C[C@H](O)CC[C@]4(C)[C@H]3C[C@@H](O)[C@]12C; assay: purified protein; assay type: biochemical, Clostridium paraputrificum; settings: oxidative direction; 300 µM NADP+; 10 nM enzyme; sodium phosphate pH 7.5; pH 7.5
purified protein [4] = substrate: NC(=O)c1ccc[n+]([C@@H]2O[C@H](COP(=O)(O)OP(=O)(O)OC[C@H]3O[C@@H](n4cnc5c(N)ncnc54)[C@H](OP(=O)(O)O)[C@@H]3O)[C@@H](O)[C@H]2O)c1; assay: purified protein; assay type: biochemical, Clostridium paraputrificum; settings: oxidative direction; 100 µM epiDCA; 10 nM enzyme; sodium phosphate pH 7.5; pH 7.5; varied: cofactor
purified protein [5] = substrate: [H][C@]12CC[C@]3([H])[C@]([H])(CC(=O)[C@@]4(C)[C@@]3([H])CC[C@]4([H])[C@H](C)CCC(=O)O)[C@@]1(C)CC[C@@H](O)C2; assay: purified protein; assay type: biochemical, Clostridium paraputrificum; settings: reductive direction; 150 µM NADPH; 10 nM enzyme; sodium phosphate pH 7.0; pH 7.0

Molecule | stoichiometry N [1] | Km (purified protein [2]) [µM] | Vmax (purified protein [2]) [µmol/min/mg] | kcat (purified protein [2]) [s⁻¹] | kcat/Km (purified protein [2]) [M⁻¹ s⁻¹] | Km (purified protein [3]) [µM] | Vmax (purified protein [3]) [µmol/min/mg] | kcat (purified protein [3]) [s⁻¹] | kcat/Km (purified protein [3]) [M⁻¹ s⁻¹] | Km (purified protein [4]) [µM] | Vmax (purified protein [4]) [µmol/min/mg] | kcat (purified protein [4]) [s⁻¹] | kcat/Km (purified protein [4]) [M⁻¹ s⁻¹] | Km (purified protein [5]) [µM] | Vmax (purified protein [5]) [µmol/min/mg] | kcat (purified protein [5]) [s⁻¹] | kcat/Km (purified protein [5]) [M⁻¹ s⁻¹]
Clostridium paraputrificum ATCC 25780 bile acid 12β-HSDH (WP_027099077.1) (enzyme) | 2 | – | – | – | – | – | – | – | – | – | – | – | – | – | – | – | –
B1 | – | 29.16 ± 0.42 | 61.8 | 28.1 | 970000 | 44.43 ± 1.13 | 130 | 59.3 ± 5.47 | 1.34e+06 ± 150000 | 36.84 ± 0.55 | 97.9 | 44.6 ± 3.77 | 1.21e+06 ± 120000 | 18.76 ± 0.40 | 58.4 | 26.6 ± 1.62 | 1.42e+06 ± 110000

Reference: PMC8096331, “Completion of the gut microbial epi-bile acid pathway” (Gut Microbes, 2021)
